In article PMC4968620 (Biochemistry, 2016):

Target: the molecule itself
Assay: SAXS

B1: HsRXRαΔNTD (130-462) (domain or fragment)
chain: FTKHICAICGDRSSGKHYGVYSCEGCKGFFKRTVRKDLTYTCRDNKDCLIDKRQRNRCQYCRYQKCLAMGMKREAVQEERQRGKDRNENEVESTSSANEDMPVERILEAELAVEPKTETYVEANMGLNPSSPNDPVTNICQAADKQLFTLVEWAKRIPHFSELPLDDQVILLRAGWNELLIASFSHRSIAVKDGILLATGLHVHRNSAHSAGVGAIFDRVLTELVSKMRDMQMDKTELGCLRAIVLFNPDSKGLSNPAEVEALREKVYASLEAYCKHKYPEQPGRFAKLLLRLPALRSIGLKCLEHLFFFKLIGDTPIDTFLMEMLEAPHQMT
stoichiometry N: 2
